Key:
[1] = target: KNH1144 SOSIP gp140 trimer with the hexaarginine (R6) mutation (HIV-1 subtype A isolate KNH1144); assay: native gel or EMSA
[2] = target: KNH1144 SOSIP gp140 trimer with the hexaarginine (R6) mutation (HIV-1 subtype A isolate KNH1144); assay: negative-stain electron microscopy

Substance | stoichiometry N [1] | stoichiometry N (molecules per trimer) [1] | stoichiometry N (molecules per trimer) [2]
KNH1144 SOSIP gp140 trimer with the hexaarginine (R6) mutation (complex) | 3 |  | 
four-domain soluble CD4 (domain or fragment) |  | 3 | 3
two-domain soluble CD4 (domain or fragment) |  | 3 | 

Source: PMC4340663
